The values that follow come from patent US20260258128A1 (MUSTBIO, published 2026).

To fix the notation:
B1: Protein complex of CD3-binding antibody variable region 1-Fc x PD-L1 antibody (bispecific antibody)
chain 1: EVQLVESGGGLVQPGGSLRLSCAASGFSFTGYTMNWVRQAPGKGLEWVALINPYKGVTTYADSVKGRFTISRDNSKNTAYLQMNSLRAEDTAVYYCARSGYYGDSDWYFDVWGQGTLVTVSSDIQMTQSPSSLSASVGDRVTITCRASQDIRNYLNWYQQKPGKAPKLLIYYTSRLESGVPSRFSGSGSGTDYTLTISSLQPEDFATYYCQQGNTLPWTFGQGTKVEIKRT
chain 2: EVQLLESGGGLVQPGGSLRLSCAASGFTFSSYIMMWVRQAPGKGLEWVSSIYPSGGITFYADTVKGRFTISRDNSKNTLYLQMNSLRAEDTAVYYCARIKLGTVTTVDYWGQGTLVTVSSASTKGPSVFPLAPSSKSTSGGTAALGCLVKDYFPEPVTVSWNSGALTSGVHTFPAVLQSSGLYSLSSVVTVPSSSLGTQTYICNVNHKPSNTKVDKKV
chain 3: QSALTQPASVSGSPGQSITISCTGTSSDVGGYNYVSWYQQHPGKAPKLMIYDVSNRPSGVSNRFSGSKSGNTASLTISGLQAEDEADYYCSSYTSSSTRVFGTGTKVTVLGQPKANPTVTLFPPSSEELQANKATLVCLISDFYPGAVTVAWKADGSPVKAGVETTKPSKQSNNKYAASSYLSLTPEQWKSHRSYSCQVTHEGSTVEKTVAPTECS
B2: Protein complex of CD3-binding antibody variable region 3-Fc x PD-L1 antibody (bispecific antibody)
scFv-Fc: EVQLVESGGGLVQPGGSLRLSCAASGFSFTGYTMNWVRQAPGKCLEWVALINPYKGVTTYADSVKGRFTISRDNSKNTLYLQMNSLRAEDTAVYYCARSGYYGDSDWYFDVWGQGTLVTVSSGGGGSGGGGSGGGGSDIQMTQSPSSLSASVGDRVTITCRASQDIRNYLNWYQQKPGKAPKLLIYYTSSLESGVPSRFSGSGSGTDYTLTISSLQPEDFATYYCQQGNTLPWTFGCGTKVEIKRTEPKSSDKTHTCPPCPAPEAAGGPSVFLFPPKPKDTLMISRTPEVTCVVVDVSHEDPEVKFNWYVDGVEVHNAKTKPREEQYNSTYRVVSVLTVLHQDWLNGKEYKCKVSNKALPAPIEKTISKAKGQPREPQVYTGPPSRDELTKNQVSLSCAVKGFYPSDIAVEWESNGQPENNYKTTPPVLDSDGSFFLVSKLTVDKSRWQQGNVFSCSVMHEALHNHYTQKSLSLSPGK
heavy: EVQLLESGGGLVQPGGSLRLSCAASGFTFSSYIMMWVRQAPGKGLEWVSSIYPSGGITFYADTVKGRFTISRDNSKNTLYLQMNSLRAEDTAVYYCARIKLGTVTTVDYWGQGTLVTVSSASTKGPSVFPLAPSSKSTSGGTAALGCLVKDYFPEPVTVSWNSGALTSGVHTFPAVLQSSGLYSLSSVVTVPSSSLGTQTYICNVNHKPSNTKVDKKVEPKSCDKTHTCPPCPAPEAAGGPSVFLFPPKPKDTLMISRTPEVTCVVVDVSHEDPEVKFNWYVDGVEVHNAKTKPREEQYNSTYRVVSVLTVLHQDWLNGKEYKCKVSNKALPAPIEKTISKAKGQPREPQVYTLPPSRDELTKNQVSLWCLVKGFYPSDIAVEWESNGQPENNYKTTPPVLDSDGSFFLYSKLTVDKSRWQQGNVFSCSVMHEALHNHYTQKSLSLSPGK
light: B1 chain 3
B3: Protein complex of CD3-binding antibody variable region 6-Fc x PD-L1 antibody (bispecific antibody)
chain 1: B1 chain 1 with R72D, A79L, R175S
chain 2: B1 chain 2
chain 3: B1 chain 3
B4: Protein complex of CD3-binding antibody variable region 2-Fc x PD-L1 antibody (bispecific antibody)
scFv-Fc: B2 scFv-Fc with C44G, C237Q
heavy: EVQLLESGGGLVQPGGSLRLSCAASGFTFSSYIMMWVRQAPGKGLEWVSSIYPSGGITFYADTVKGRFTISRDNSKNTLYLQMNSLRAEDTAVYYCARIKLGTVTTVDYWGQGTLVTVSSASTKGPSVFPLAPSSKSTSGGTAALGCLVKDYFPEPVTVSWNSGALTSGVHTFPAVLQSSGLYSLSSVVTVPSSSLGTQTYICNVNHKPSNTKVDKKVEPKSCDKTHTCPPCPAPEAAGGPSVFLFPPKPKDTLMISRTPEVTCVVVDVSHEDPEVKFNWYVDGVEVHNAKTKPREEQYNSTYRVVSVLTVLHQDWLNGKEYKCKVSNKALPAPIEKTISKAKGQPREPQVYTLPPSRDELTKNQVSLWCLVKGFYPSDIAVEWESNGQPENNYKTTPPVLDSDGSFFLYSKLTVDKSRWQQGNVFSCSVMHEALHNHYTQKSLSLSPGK
light: B1 chain 3
B5: Protein complex of CD3-binding antibody variable region 5-Fc x PD-L1 antibody (bispecific antibody)
chain 1: B1 chain 1 with G44C, R72A, A79L, R175S, Q222C
chain 2: B1 chain 2
chain 3: B1 chain 3
B6: Protein complex of CD3-binding antibody variable region 4-Fc x PD-L1 antibody (bispecific antibody)
chain 1: B1 chain 1 with R72A, A79L, R175S
chain 2: B1 chain 2
chain 3: B1 chain 3
B7: Protein complex of CD3-binding antibody variable region 7-Fc x PD-L1 antibody (bispecific antibody)
chain 1: B1 chain 1 with R72Q, A79L, R175S
chain 2: B1 chain 2
chain 3: B1 chain 3

Positions count from the first letter of the chain named.

The target in the first assay is T1, CD3 on T cells of human peripheral blood mononuclear cells (human, UniProt P07766 23-207). As to the kind of experiment: cell-based or functional assay.
T1 sequence (P07766 23-207): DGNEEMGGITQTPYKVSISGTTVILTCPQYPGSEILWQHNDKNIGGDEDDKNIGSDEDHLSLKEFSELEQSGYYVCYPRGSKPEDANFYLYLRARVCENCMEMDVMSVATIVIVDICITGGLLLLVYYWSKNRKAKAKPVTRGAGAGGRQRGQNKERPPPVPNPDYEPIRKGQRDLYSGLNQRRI
For the molecule B1, the “Death of cancer cells EC50 (MDA-MB-231 + human PBMC, flow cytometry)” value (“Death of cancer cells EC50” for short) was determined as 0.23 nM; the “Death of cancer cells Emax (%)” value was 80%; the “IFNγ release EC50” value was found to be 0.1 nM; the “IFNγ release Maximum concentration” value was found to be 6.1 ng/mL.
With B2, the “Death of cancer cells EC50” value came out at 0.06 nM and the “IFNγ release EC50” value is 0.1 nM.
Turning to B3, the “Death of cancer cells EC50” value worked out at 3.5 nM; the “Death of cancer cells Emax (%)” value turned out to be 68%; the “IFNγ release EC50” value worked out at 16.4 nM; the “IFNγ release Maximum concentration” value was 5.1 ng/mL.
On to B4, for which the “Death of cancer cells EC50” value was 0.05 nM and the “IFNγ release EC50” value stood at 2.5 nM.
As to B5, the “Death of cancer cells EC50” value was 0.18 nM; the “Death of cancer cells Emax (%)” value was 66%; the “IFNγ release EC50” value stood at 10 nM; the “IFNγ release Maximum concentration” value came out at 4.4 ng/mL.
The like results for B6 were, in that order, 0.18 nM, 79%, 31.2 nM and 2.6 ng/mL.
The like results for B7 were, in that order, 2.26 nM, 68%, 15.3 nM and 9.3 ng/mL.

The target of another assay is PD-L1 on human cells (MDA-MB-231, MCF-7, 293T) (human, UniProt Q9NZQ7 19-290). As to the kind of experiment: cell-based or functional assay.
Chain of PD-L1 on human cells (MDA-MB-231, MCF-7, 293T) (Q9NZQ7 19-290): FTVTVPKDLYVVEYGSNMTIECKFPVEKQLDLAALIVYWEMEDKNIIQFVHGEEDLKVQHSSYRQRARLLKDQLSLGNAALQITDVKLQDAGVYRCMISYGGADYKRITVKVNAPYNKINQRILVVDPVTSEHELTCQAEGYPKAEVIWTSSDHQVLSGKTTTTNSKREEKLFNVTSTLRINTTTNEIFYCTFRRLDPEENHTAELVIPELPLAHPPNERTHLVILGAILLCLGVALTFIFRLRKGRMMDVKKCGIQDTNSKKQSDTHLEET
For the molecule B4, the “Tumor lysis EC50, 293T (normal cells, low PD-L1 expression) + human PBMC” value was found to be 0.0313 nM; the “Tumor lysis EC50, MCF7 (low PD-L1 expression) + human PBMC” value is 0.15 nM; the “Tumor lysis EC50, MDA-MB-231 (high PD-L1 expression) + human PBMC” value turned out to be 0.0945 nM.

Another assay has as its target T1, CD3 on T cells of human peripheral …. The assay is described as follows: cell-based or functional assay. This is another data set of the same source.
B2: the “fold reduction of the maximum cytokine release level compared to the CD3-binding monoclonal antibody” value worked out at 10.5 fold.
